Measured values reported in US20200390870A1 (MINERVA BIOTECHNOLOGIES, published 2020).
Values belong to the molecule of their own block, whether it stands above or below them.

T1: PSMGFR peptide (Primary Sequence of the MUC1 Growth Factor Receptor)
T1 construct: synthetic peptide, immobilized on ELISA plates or attached to beads; also called MUC1* peptide; synthetic MUC1* extra cellular domain peptide
T1 peptide: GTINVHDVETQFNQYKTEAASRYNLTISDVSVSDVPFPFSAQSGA

T2: PSMGFR minus 10 amino acids from the N-terminus
T2 construct: also called N-10; N-10 PSMGFR
T2 peptide: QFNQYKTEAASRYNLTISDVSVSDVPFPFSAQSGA

T3: NME7-AB (human, UniProt Q9Y5B8 92-376)
T3 construct: also called NM23-H7
T3 sequence: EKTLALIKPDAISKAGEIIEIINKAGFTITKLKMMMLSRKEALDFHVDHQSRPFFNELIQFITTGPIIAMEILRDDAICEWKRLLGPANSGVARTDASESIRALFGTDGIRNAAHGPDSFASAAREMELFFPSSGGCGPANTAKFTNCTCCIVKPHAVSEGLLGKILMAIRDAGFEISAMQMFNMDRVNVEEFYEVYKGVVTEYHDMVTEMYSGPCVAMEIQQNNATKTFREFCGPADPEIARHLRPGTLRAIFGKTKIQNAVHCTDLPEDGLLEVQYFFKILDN

B1: humanized MN-E6 scFv (scFv, V domains shown, not shown: small tags and cut ends)
VH: EVQLVESGGGLVKPGGSLRLSCAASGFTFSRYGMSWVRQAPGKRLEWVSTISGGGTYIYYPDSVKGRFTISRDNAKNTLYLQMNSLRAEDTAVYYCTRDNYGRNYDYGMDYWGQGTLVTVSS
VL: EIVLTQSPATLSLSPGERATLTCSATSSVSYIHWYQQRPGQSPRLLIYSTSNLASGIPARFSGSGSGSDYTLTISSLEPEDFAVYYCQQRSSSPFTFGSGTKVEIK
notes: several humanized MN-E6 single chain proteins were generated; the one in the assays is not identified; also called hu MN-E6 scFv
B2: mouse monoclonal antibody MN-E6 (antibody, V domains shown)
VH: EVKVVESGGDLVKPGGSLKLSCVVSGFTFSRYGMSWVRQTPGKRLEWVATISGGGTYIYYPDSVKGRFTISRDNAKNTLYLQMSSLKSEDTAMYHCTRDNYGRNYDYGMDYWGQGTSVTVSS
VL: QIVLTQSPAIMSASPGEEVTLTCSATSSVSYIHWFQQRPGTSPKLWIYSTSNLASGVPVRFSGSGYGTSYSLTISRMEAEDAATYYCQQRSSSPFTFGSGTKLEIK
notes: mouse monoclonal; also called Min-E6
B3: PSMGFR minus 10 amino acids from the C-terminus (peptide)
peptide: GTINVHDVETQFNQYKTEAASRYNLTISDVSVSDV
notes: also called C-10; C-10 PSMGFR
B4: humanized MN-C3 antibody (antibody, V domains shown)
VH: QVQLVQSGAEVKKPGASVKVSCKASGYTFTDYAMNWVRQAPGQGLEWMGVISTFSGNTNFNQKFKGRVTMTTDTSTSTAYMELRSLRSDDTAVYYCARSDYYGPYFDYWGQGTTLTVSS
VL: DIVMTQTPLSLSVTPGQPASISCRSSQTIVHSNGNTYLEWYLQKPGQSPQLLIYKVSNRFSGVPDRFSGSGSGTDFTLKISRVEAEDVGVYYCFQGSHVPFTFGGGTKVEIKR
notes: tested impure; also called Impure humanized MN-C3 antibody
B5: CAR50 (MNC2 scFv, CD4 transmembrane domain, 41BB-3zeta) (other)
chain: EVQLVESGGGLVKPGGSLRLSCAASGFTFSGYAMSWVRQAPGKGLEWVSTISSGGTYIYYPDSVKGRFTISRDNAKNSLYLQMNSLRAEDTAVYYCARLGGDNYYEYFDVWGKGTTVTVSSGGGGSGGGGSGGGGSDIVLTQSPASLAVSPGQRATITCRASKSVSTSGYSYMHWYQQKPGQPPKLLIYLASNLESGVPARFSGSGSGTDFTLTINPVEANDTANYYCQHSRELPFTFGGGTKVEIKRTSGQVLLESNIKVLPTWSTPVQPMALIVLGGVAGLLLFIGLGIFFKRGRKKLLYIFKQPFMRPVQTTQEEDGCSCRFPEEEEGGCELRVKFSRSADAPAYKQGQNQLYNELNLGRREEYDVLDKRRGRDPEMGGKPRRKNPQEGLYNELQKDKMAEAYSEIGMKGERRRGKGHDGLYQGLSTATKDTYDALHMQALPPR
notes: chimeric antigen receptor on transduced human T cells; also called huMNC2-CAR50; huMNC2-scFv-CAR50
B6: humanized MN-C2 scFv (scFv, V domains shown)
VH: EVQLVESGGGLVKPGGSLRLSCAASGFTFSGYAMSWVRQAPGKGLEWVSTISSGGTYIYYPDSVKGRFTISRDNAKNSLYLQMNSLRAEDTAVYYCARLGGDNYYEYFDVWGKGTTVTVSS
VL: DIVLTQSPASLAVSPGQRATITCRASKSVSTSGYSYMHWYQQKPGQPPKLLIYLASNLESGVPARFSGSGSGTDFTLTINPVEANDTANYYCQHSRELPFTFGGGTKVEIKR
notes: several humanized MN-C2 single chain proteins were generated; the one in the assays is not identified; also called huMN-C2 scFv; hMN-C2 scFv; not shown: 6x His tag, detected in the flow cytometry assay
B7: mouse monoclonal antibody MN-C2 (antibody, V domains shown)
VH: EVQLEESGGGLVKPGGSLKLSCAASGFTFSGYAMSWVRQTPEKRLEWVATISSGGTYIYYPDSVKGRFTISRDNAKNTLYLQMSSLRSEDTAMYYCARLGGDNYYEYFDVWGAGTTVTVSS
VL: DIVITQSTASLGVSLGQRATISCRASKSVSTSGYSYMHWYQQRPGQPPKLLIYLASNLESGVPARFSGSGSGTDFTLNIHPVEEEDAATYYCQHSRELPFTFGGGTKLEIKR
notes: mouse monoclonal; also called Min-C2
B8: mouse monoclonal antibody MN-C3 (antibody, V domains shown)
VH: QVQLQQSGPELVRPGVSVKISCKGSGYRFTDYAMNWVKQSHAKSLEWIGVISTFSGNTNFNQKFKGKATMTVDKSSSTAYMELARLTSEDSAMYYCARSDYYGPYFDYWGQGTTLTVSS
VL: DVLMTQTPLSLPVSLGDQASISCRSSQTIVHSNGNTYLEWYLQKPGQSPKLLIYKVSNRFSGVPDRFSGSGSGTDFTLKINRVEAEDLGVYYCFQGSHVPFTFGSGTKLEIK
notes: mouse monoclonal; also called Min-C3
B9: CAR44 huMNC2-CD8-4-1BB-CD3z (other)
chain: EVQLVESGGGLVKPGGSLRLSCAASGFTFSGYAMSWVRQAPGKGLEWVSTISSGGTYIYYPDSVKGRFTISRDNAKNSLYLQMNSLRAEDTAVYYCARLGGDNYYEYFDVWGKGTTVTVSSGGGGSGGGGSGGGGSDIVLTQSPASLAVSPGQRATITCRASKSVSTSGYSYMHWYQQKPGQPPKLLIYLASNLESGVPARFSGSGSGTDFTLTINPVEANDTANYYCQHSRELPFTFGGGTKVEIKRTTTTPAPRPPTPAPTIASQPLSLRPEACRPAAGGAVHTRGLDFACDIYIWAPLAGTCGVLLLSLVITLYCKRGRKKLLYIFKQPFMRPVQTTQEEDGCSCRFPEEEEGGCELRVKFSRSADAPAYKQGQNQLYNELNLGRREEYDVLDKRRGRDPEMGGKPRRKNPQEGLYNELQKDKMAEAYSEIGMKGERRRGKGHDGLYQGLSTATKDTYDALHMQALPPR
notes: also called huMNC2-CAR44; huMNC2-scFv-CAR44

Legend:
[1] = molecular target: MUC1-41TR (MUC1 with an extracellular domain truncated after 41 tandem repeats) (Homo sapiens (Human)) (UniProt P15941); test: FACS on HCT-MUC1-41TR cells
Chain of MUC1-41TR (MUC1 with an extracellular domain truncated after 41 tandem repeats) (Homo sapiens (Human)) (P15941 other isoform, or with tags, fused parts or gaps limits assumed): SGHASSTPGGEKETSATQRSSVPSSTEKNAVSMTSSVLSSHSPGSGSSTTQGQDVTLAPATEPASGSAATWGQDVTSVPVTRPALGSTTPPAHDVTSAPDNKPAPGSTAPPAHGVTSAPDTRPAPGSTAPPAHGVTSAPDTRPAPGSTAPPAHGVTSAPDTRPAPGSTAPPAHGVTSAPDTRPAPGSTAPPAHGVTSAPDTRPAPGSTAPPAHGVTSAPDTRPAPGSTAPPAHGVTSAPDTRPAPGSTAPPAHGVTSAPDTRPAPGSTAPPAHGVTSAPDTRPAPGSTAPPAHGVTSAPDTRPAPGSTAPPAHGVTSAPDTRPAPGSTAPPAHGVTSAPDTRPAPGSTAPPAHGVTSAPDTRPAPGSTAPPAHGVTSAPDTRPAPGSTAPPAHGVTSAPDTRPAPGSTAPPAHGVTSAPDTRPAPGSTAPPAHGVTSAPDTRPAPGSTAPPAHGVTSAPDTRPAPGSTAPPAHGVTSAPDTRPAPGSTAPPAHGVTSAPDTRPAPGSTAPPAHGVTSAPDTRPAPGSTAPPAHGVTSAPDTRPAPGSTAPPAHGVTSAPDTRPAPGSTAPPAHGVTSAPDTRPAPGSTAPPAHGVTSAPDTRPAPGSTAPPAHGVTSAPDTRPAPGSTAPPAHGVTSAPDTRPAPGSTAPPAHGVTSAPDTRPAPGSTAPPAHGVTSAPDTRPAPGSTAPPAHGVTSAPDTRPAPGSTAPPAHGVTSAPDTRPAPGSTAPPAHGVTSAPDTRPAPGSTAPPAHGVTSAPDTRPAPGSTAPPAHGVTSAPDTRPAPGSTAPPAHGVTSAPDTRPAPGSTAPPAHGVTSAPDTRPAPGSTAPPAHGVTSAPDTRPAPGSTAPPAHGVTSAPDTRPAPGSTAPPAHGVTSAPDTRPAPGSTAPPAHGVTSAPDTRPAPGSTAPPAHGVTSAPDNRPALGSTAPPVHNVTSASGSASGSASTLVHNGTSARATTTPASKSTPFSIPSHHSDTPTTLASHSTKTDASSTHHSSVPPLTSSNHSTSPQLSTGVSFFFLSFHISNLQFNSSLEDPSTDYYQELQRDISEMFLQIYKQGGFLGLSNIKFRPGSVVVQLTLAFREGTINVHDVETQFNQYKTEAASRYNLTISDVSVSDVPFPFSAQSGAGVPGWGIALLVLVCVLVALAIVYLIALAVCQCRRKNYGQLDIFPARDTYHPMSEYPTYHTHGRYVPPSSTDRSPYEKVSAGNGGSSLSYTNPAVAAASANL

[2] = molecular target: T1, PSMGFR peptide (Primary Sequence of the …); test: ELISA on PSMGFR peptide
Source text: FIGS. 21A-21B show an ELISA graph of several anti-MUC1* scFv-Fc fusion proteins wherein the Fc region has been eliminated or mutated. Shown are hu MN-E6 scFv-Fc-wt, hu MN-E6 scFv-Fc-Y407R, hu MN-E6 scFv-Fc-hingeless, and hu MN-E6 scFv-Fc-Y407R-hingeless. All mutants bind to the PSMGFR peptide of the MUC1* extracellular domain (A). An ELISA graph of several anti-MUC1* scFv-Fc fusion proteins wherein the Fc region is either wild type or mutated. Shown are hu MN-E6 scFv-Fc-wt, hu MN-E6 scFv-Fc-hingeless, and hu MN-C3 scFv-Fc is shown (B). All bind to the PSMGFR peptide of the MUC1* extracellular domain.

[3] = molecular target: T2, PSMGFR minus 10 amino acids from the …; test: selection criteria, FIGS. 3A-3C named
Experimental: (§1) FIGS. 3A-3C show results of competitive ELISA assays. The PSMGFR MUC1* peptide is immobilized on the plate and dimeric NM23-H1, aka NME1, is added either alone or after the MN-E6 antibody has been added (A). The same experiment was performed wherein NM23-H7, NME7-AB, is added alone or after MN-E6 has been added (B). […] In a similar experiment (C), PSMGFR or PSMGFR minus 10 amino acids from the N-terminus, aka N-10, is immobilized on the plate. Dimeric NM23-H1 is then added. Anti-MUC1* antibodies MN-E6, MN-C2, MN-C3 or MN-C8 are then tested for their ability to compete off the NM23-H1.

[4] = molecular target: T1, PSMGFR peptide (Primary Sequence of the …); test: competitive ELISA on immobilized PSMGFR or N-10 peptide
Experimental: as §1

dimeric NME1 = molecular target: T4, dimeric NME1 (human, UniProt P15531 1-152, limits assumed); test: ELISA on immobilized peptide
T4 construct: used as a dimer; also called dimeric NM23-H1; NM23-H1 dimers
T4 sequence (P15531 whole entry): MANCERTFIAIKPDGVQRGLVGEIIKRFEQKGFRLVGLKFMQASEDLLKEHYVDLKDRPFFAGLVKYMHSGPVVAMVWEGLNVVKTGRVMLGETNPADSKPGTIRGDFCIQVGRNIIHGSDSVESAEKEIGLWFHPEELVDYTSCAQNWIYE

NME7-AB = molecular target: T3, NME7-AB; test: ELISA on immobilized peptide
[5] = molecular target: T1, PSMGFR peptide (Primary Sequence of the …); test: ELISA on immobilized PSMGFR, N-10 and C-10 peptides
Experimental: FIGS. 22A-22C show graphs of ELISAs wherein the assay plate surface was immobilized with either PSMGFR peptide, PSMGFR minus 10 amino acids from the N-terminus or minus 10 amino acids from the C-terminus. The MN-C3 antibody variants were then assayed for binding to the various MUC1* peptides. A) Purified mouse monoclonal MN-C3 antibody; B) Impure humanized MN-C3 antibody; and C) the humanized MN-C3 scFv-Fc. ELISAs show binding to the PSMGFR peptide as well as to certain deletion peptides.

[6] = molecular target: T5, MUC1-41TR (MUC1 with an extracellular domain truncated after 41 tandem repeats) (Homo sapiens (Human), UniProt P15941 24-1255); test: CAR T co-culture, photographs; no T cell induced clustering
T5 construct: only minimally cleaved to MUC1*; also called HCT-MUC1-41TR; HCT-MUC1-18
T5 sequence (P15941 other isoform, or with tags, fused parts or gaps limits assumed): as the sequence (P15941 other isoform, or with tags, fused parts or gaps limits assumed) above
Experimental: FIGS. 75A-75P show photographs of a CAR T co-culture assay in which the targeting antibody fragment of the CAR is huMNC2scFv wherein CAR44 has a CD8 transmembrane domain, followed by 41BB-3zeta and CAR50 has a CD4 transmembrane domain, followed by 41BB-3zeta. […] The HCT-MUC1-41TR cancer cells were also incubated with conditioned media from cells transfected with MMP9 or ADAM17 before co-culture with the CAR T cells. Conditioned media of the MMP9 or ADAM17 expressing cells were also incubated with APMA which is an activator of those cleavage enzymes. The images shown are an overlay of the 4× bright field image and the fluorescent image of the same showing cancer cells dyed with a red CMTMR lipophilic dye. FIGS. 75A, 75E, 75I, 75M show photographs of cells co-cultured with untransduced human T cells. FIGS. 75B, 75F, 75J, 75N show photographs of cells co-cultured with human T cells transduced with anti-MUC1* CAR44 at an MOI of 10. FIGS. 75C, 75G, 75K, 75O show photographs of cells co-cultured with human T cells transduced with anti-MUC1* CAR50 at an MOI of 10. FIGS. 75D, 75H, 75L, 75P show photographs of cells co-cultured with human T cells transduced with anti-MUC1* CAR44 at an MOI of 50, which increases transduction efficiency. […] There is no T cell induced clustering and the number of cancer cells has not decreased. […]

[7] = molecular target: T1, PSMGFR peptide (Primary Sequence of the …); test: ELISA, surface coated with PSMGFR peptide or a control peptide
Experimental: Humanized MN-C2 scFv is then incubated with the surface, washed and detected according to standard methods.

[8] = molecular target: B3; test: ELISA on immobilized N-10 and C-10 peptides

percent of cells positive [1]: 95%
Molecule: VU4H5 (antibody)

Molecule: B1
binding result [2]: binds

Molecule: B2
binding result [3]: binds
binding result [4]: binds

Molecule: B3
binding result (dimeric NME1): no binding
binding result (NME7-AB): no binding

Molecule: B4
binding result [5]: binds

Molecule: B5
binding result [6]: no binding

Molecule: B6
EC50 [7]: ~0.333 µM

Molecule: B7
binding result [3]: binds
binding result [4]: binds

Molecule: B8
binding result [8]: binds
binding result [5]: binds

Molecule: B9
binding result [6]: no binding
